Source: the supplement of paper PMC12764529
± gives the half width of the 95% confidence interval.

Test: folding stability dG unfold from chymotrypsin proteolysis; higher = more stable
Description: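 Folding stability of de novo designed mini-proteins (<80 aa, no Cys; designed by TrROS, TrMRF, ProteinMPNN and the joint model) was measured by cDNA display proteolysis with trypsin and chymotrypsin. Each protease was used at 11 concentrations in a threefold dilution series plus a no-protease condition. K50 was inferred by Bayesian fitting of sequencing counts, and dG unfold was derived against a sequence-predicted unfolded-state K50 (Tsuboyama et al. method). Sequences shown include variable-length N-terminal GS-type padding (SAGGSAGG...) inside a display construct carrying a PA tag. Rows were kept only if the AF2 dimer inter-PAE was >15, to exclude likely homo-oligomers.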

With “SAGGSMTVSTAPDGTLKVYDPATGKLNPLPVPPVPLVVSRSVQPDKGVVITTTTTPSGEVTVSTTALSAGGS [r16_453_JUSTAS]” as the sequence, how does the “folding stability dG unfold” value read?
Its value is 0.394 ± 0.06 kcal/mol.

Which “folding stability dG unfold” value does the source give for “SAGGSAMKAKVVDTSLKESKTKDDSIIVTVTVKYPDGSVTPIVYPVSSSGGISEEEVEKAIKELLESAGGSA [r15_233_JUSTAS]” here?
Its value is -0.138 ± 0.057 kcal/mol.

For “SAGGSMPPVVEPATLTLGNGPATQLQRYPGVELVVYRRPPENTILFLSSSGQVLEERKVSPETPVSELSAGG [r13_507_JUSTAS]”, which “folding stability dG unfold” value is on record?
The value was -0.318 ± 0.31 kcal/mol.

For “SAGGSAGGSAGGSMVIKFTHPDGDPNLPVETLNLKKEELSEEKIKELKEKNPDIKIELKSAGGSAGGSAGGS [r4_422_JUSTAS]”, which “folding stability dG unfold” value is on record?
Its value is 0.257 ± 0.33 kcal/mol.

For “SAGMTHVLPVPELSPEEVRALAEALPEGEELVLLVPGPELLAELRAAGFPVDPARFRLATPEERAELLASAG [r5_354_JUSTAS]”, which “folding stability dG unfold” value is on record?
The value was 0.857 ± 0.13 kcal/mol.

With “SAGGSMKDIPAEEIAKLFAAKLGYPILDAKVEKNPVKPVYKLYIVVEEKNPGKKFPREITIPSELLSAGGSA [r2_156_TrMRF]” as the sequence, how does the “folding stability dG unfold” value read?
The value was 0.196 ± 0.25 kcal/mol.

Which “folding stability dG unfold” value does the source give for “SAGGSAGGSAGIPADAPEAVVRLDLYPDGPDTVVTVEAPFKDIPLDDIPENAVVRLEASPLGSAGGSAGGSA [r18_21_TrMRF]” here?
Its value is 0.0909 ± 0.06 kcal/mol.

With “SAGGSAGGSAGGGSMDELPEIEEIAYVTDPATGAVTTVPASQVPEVLASTNNTVTIRPVSAGGSAGGSAGGS [r10_1121_JUSTAS]” as the sequence, how does the “folding stability dG unfold” value read?
Its value is 0.363 ± 0.073 kcal/mol.

With “SAGGSSVKVVKTEVTEDPATGLTTVTETFENGAKATFTIDPATGTVPGETEYPDKKVKYTGYDPLPPSAGGS [r8_363_JUSTAS]” as the sequence, how does the “folding stability dG unfold” value read?
The value was 0.588 ± 0.15 kcal/mol.

For “SAGGSAGGSAGGSGPDETILVTRKVTTTEPVLLEHDGTPRVRERTVTRTSSTTERVDLSSAGGSAGGSAGGS [r4_271_JUSTAS]”, which “folding stability dG unfold” value is on record?
The value was -0.146 ± 0.21 kcal/mol.

For “SAGGSAGGSAGGMKPGEVVLIYVERSYYDPEKGPLTPRNARYELLNYKPLPLKPKDPKVLSAGGSAGGSAGG [r7_522_JUSTAS]”, which “folding stability dG unfold” value is on record?
The value was -0.3 ± 0.26 kcal/mol.

With “SAGGSADNENNENQKPKPKPKKKLEVTIPVPLPPGDSLEEAMEQAYNIANHLAQSGKLDEVEISIFSAGGSA [r15_450_TrROS]” as the sequence, how does the “folding stability dG unfold” value read?
The value was -0.241 ± 0.4 kcal/mol.

For “SAGGSAGGSDDAVTFTFTSAPTRLLYLDNPKTFPGSATVTLPAGNPDEFRIERFAPDTAELKPSAGGSAGGS [r20_150_TrMRF]”, which “folding stability dG unfold” value is on record?
The value was -0.427 ± 0.62 kcal/mol.

Which “folding stability dG unfold” value does the source give for “SAGGSAGGAIAPGEEVEAEVTIVDPLTGKETTAKVTLTVHPTSVTITLPGGKPAVVPAAYVRFGSAGGSAGG [r6_436_TrMRF]” here?
The value was -0.176 ± 0.56 kcal/mol.

With “SAGGSAGGSAGGSSMKEVTLYVPPGTLDPAVVEKLREEGVKVTVVPVPLSREPDGPPVASAGGSAGGSAGGS [r4_294_JUSTAS]” as the sequence, how does the “folding stability dG unfold” value read?
Its value is 0.965 ± 0.17 kcal/mol.

With “SAGGSMLVTVKFKTLPDGTVDHNPKLLAKVDGPEPDPADPATVRLPVDPAVVAQWPEEVAEEMEILASAGGS [r16_328_JUSTAS]” as the sequence, how does the “folding stability dG unfold” value read?
Its value is 0.155 ± 0.086 kcal/mol.

With “SAGGSAGGSAGEIVIDVEPNMTVEEVKKRIKALAEELKKEKGLEIKKIEIKEGMSVEELLSAGGSAGGSAGG [r17_43_TrROS_Hall]” as the sequence, how does the “folding stability dG unfold” value read?
Its value is 0.225 ± 0.077 kcal/mol.

Which “folding stability dG unfold” value does the source give for “SAGGSAGGSAKKLKIPNPDGKTYEMKVEDVDPENNNVMIRNPGNGEPFHFKKSDAKRIAEELSAGGSAGGSA [r18_161_TrROS]” here?
Its value is -0.626 ± 0.44 kcal/mol.

With “SAGGSAGGSQKPTIEKEGGRYYIRNPDNGKSFPINIEREDNEWKFEFGDGEITIPGEFEIQRRSAGGSAGGS [r12_683_TrROS]” as the sequence, how does the “folding stability dG unfold” value read?
The value was -0.308 ± 0.14 kcal/mol.

With “SAGGSAGGSAGGSGFILKESPDSVLSYDAITGETKKVPSKDVVLEYDPNNGVYTLTVSKSAGGSAGGSAGGS [r4_127_JUSTAS]” as the sequence, how does the “folding stability dG unfold” value read?
Its value is 0.639 ± 0.12 kcal/mol.

With “SAGGSGSRIVVETITEYEVFETPTGKKKTKVFKTKKIVTETVPMSPADVAAYEAALAEGLGPGALASAGGSA [r2_327_JUSTAS]” as the sequence, how does the “folding stability dG unfold” value read?
Its value is 0.714 ± 0.16 kcal/mol.

With “SAMVPLEEAAKRVAEELGLEYTEITKIVPGTGELIVEFPGKKLTVTQDPATGSTTVEETFYDPETGVKKSAG [r14_270_JUSTAS]” as the sequence, how does the “folding stability dG unfold” value read?
The value was -1.35 ± 0.28 kcal/mol.

For “SSTTTTTTDPSGYTYSTTVTTHPDSTTTTTGRVTVEKVGDRPVARTTTTTTTVSPGGATTTTTSTTTTLPSA [r9_69_JUSTAS]”, which “folding stability dG unfold” value is on record?
Its value is 0.589 ± 0.1 kcal/mol.

For “SAGGSAGGSAGGSKVYVLVPVPNPEAIWEKVKALGPDAKVNSVEFLPGEGYLRVEVDAPSAGGSAGGSAGGS [r10_23_TrMRF]”, which “folding stability dG unfold” value is on record?
Its value is -0.318 ± 0.49 kcal/mol.

Which “folding stability dG unfold” value does the source give for “SAGGSAGGSAGSMTVTSKYTLPGSSDVPVEVEVYSEAPVAVLTKPGAKTVLPLEALKALLSAGGSAGGSAGG [r11_370_JUSTAS]” here?
Its value is 0.346 ± 0.14 kcal/mol.

Which “folding stability dG unfold” value does the source give for “SAGGSAGGSAGGTIKKVSDGTIVIPVPNPHQAEKFADTLMEKNNGRDVKIKVFPPEDFGPSAGGSAGGSAGG [r7_645_TrROS]” here?
The value was -0.264 ± 0.1 kcal/mol.

Which “folding stability dG unfold” value does the source give for “SAGGSAGGSAGMLTTKTITLPHAPDDPAAFRAAVLKGLPPELPVLSVDYDPATGTGTVVASAGGSAGGSAGG [r11_698_JUSTAS]” here?
Its value is 0.0666 ± 0.31 kcal/mol.

For “SSVTLLVPVEVTLPTPEGKGPSVTRFVPVPVPEEELRERLIEELREELKKKGEPDVTEEELKDPEVLEELSA [r9_263_JUSTAS]”, which “folding stability dG unfold” value is on record?
Its value is 0.51 ± 0.046 kcal/mol.

Which “folding stability dG unfold” value does the source give for “SAGGSAGGSAGGPPVLTVTRYPPTPYLTVTLPGGRPVVLPVHPDTPPSDVLRLARELTASAGGSAGGSAGGS [r10_33_TrMRF]” here?
The value was -0.163 ± 0.26 kcal/mol.

With “SAGGSAGMRMQIQIPNDEIPPEKIEDALQEYGWNPTDVYPPDNGVSVTFEMDPGDMNKLMEAIKKLSAGGSA [r15_161_TrROS]” as the sequence, how does the “folding stability dG unfold” value read?
The value was 0.843 ± 0.29 kcal/mol.

Which “folding stability dG unfold” value does the source give for “SAGGGPPGVVKPFTEETTFTVPLAGGPPVEVKTTTTTYTSADPAKRSLVTTTTTSPQNATTTTVTPLSSAGG [r13_654_JUSTAS]” here?
Its value is -0.2 ± 0.23 kcal/mol.

Which “folding stability dG unfold” value does the source give for “SAGGSAGGAEKIKKKLEELGFEIVKIEKESENKIKIYVKPDNPEKIKEIKEKISSSEVDEIGNESAGGSAGG [r6_83_TrMRF]” here?
Its value is 0.486 ± 0.16 kcal/mol.

Which “folding stability dG unfold” value does the source give for “SAGGSAGGSELPPGPYLVTIPADPEPVVAPATFAPDGTVRVRVPEPGEEITIPRDQAEIFPVESAGGSAGGS [r12_782_JUSTAS]” here?
The value was 0.944 ± 0.058 kcal/mol.

With “SKPMPADELMEQHPNMIMIRTPNDKHIFINPEENEIFRFNPDEGRVYWIPGTLEEIEELVPDNGFEIWPFSA [r9_721_TrROS]” as the sequence, how does the “folding stability dG unfold” value read?
The value was 0.536 ± 0.21 kcal/mol.

For “SAGGMPATLEVRLPDGAGAVGVVRADDPDEIIEAARAIPADAPVVLTTDDPAYGRLFLEAGFDVVTLESAGG [r13_476_TrMRF]”, which “folding stability dG unfold” value is on record?
Its value is 0.241 ± 0.066 kcal/mol.

With “SAGGSAGGSAGGSDDGSGVRLETFTVTGKGATVTLPDGSTLTVPADQTVTVTRLEVLPKSAGGSAGGSAGGS [r4_26_TrMRF]” as the sequence, how does the “folding stability dG unfold” value read?
The value was -0.509 ± 0.23 kcal/mol.

With “SAGGSAGGSAGMTLVKTYERFPETGTVVERLSAREPDGPTVPLEVTKVRPVAGEEPVPLLSAGGSAGGSAGG [r11_750_JUSTAS]” as the sequence, how does the “folding stability dG unfold” value read?
Its value is -0.665 ± 0.23 kcal/mol.

Which “folding stability dG unfold” value does the source give for “SAGGSAGGSEEVVRTETSTSTTPDGKRVKTTTTTLPTPTTVTTTTVYAPGGEVLETTTTTTAASAGGSAGGS [r12_727_JUSTAS]” here?
Its value is -0.123 ± 0.2 kcal/mol.

Which “folding stability dG unfold” value does the source give for “SSMVVINFPDTKKATPETLRKEIEPVAAPGKPVLVTVYPPTGVVLKTATVEPDKVEEVDPSHPYIVEIVASA [r9_264_JUSTAS]” here?
The value was -0.377 ± 0.24 kcal/mol.

Which “folding stability dG unfold” value does the source give for “SAGGMKAKATFKIPKTFVDPKNNSPKISESEITIEREFKSEEEAKEFVEKIKEELPPELTELVSLELESAGG [r19_209_JUSTAS]” here?
The value was -0.601 ± 0.48 kcal/mol.

Which “folding stability dG unfold” value does the source give for “SAGGKKKVVIKVEVKNKKTGKTFEKEIVIEIDENETEEQILEKAKELAKKLAEENGLEVKIVEIKPLSAGGS [r8_312_TrROS_Hall]” here?
The value was 3.84 ± 0.18 kcal/mol.

With “SAGGENVIIRYKDPDRFKEAIQDAPGIPPENVKTKPNPNGWNEVTFPNPEALDRLKKAGYPVDKIEPSAGGS [r16_381_TrROS]” as the sequence, how does the “folding stability dG unfold” value read?
Its value is -0.351 ± 0.38 kcal/mol.

For “SAGGSIPAEEIADKLRKEPGIPEDDVEVNVERRPGQVTIDVKMDDPDHPQHRRMKKRAQDALQKLLSAGGSA [r2_3_TrROS]”, which “folding stability dG unfold” value is on record?
The value was 0.186 ± 0.31 kcal/mol.

With “SAGGSAGGMSLEEAVEEAAAAVSPDETAEVVLTVEVSEPLTFPEPPDRLVTRPRTVRVRVRAPASAGGSAGG [r6_543_JUSTAS]” as the sequence, how does the “folding stability dG unfold” value read?
Its value is 0.488 ± 0.11 kcal/mol.

For “SAGGSAGGSSEVIEKLLELNPDVEVVSVTPTPNGVTVTVATKEGGEETVSSAELEKLGVKIRLSAGGSAGGS [r12_3_JUSTAS]”, which “folding stability dG unfold” value is on record?
The value was 0.282 ± 0.1 kcal/mol.

With “SAGGSAGGSPPPVPLSTLAVEPDPATGGKFTVLLAYPDGSTRELTSEEEAAALPNFDLERRLASAGGSAGGS [r20_192_JUSTAS]” as the sequence, how does the “folding stability dG unfold” value read?
Its value is 0.443 ± 0.2 kcal/mol.

Which “folding stability dG unfold” value does the source give for “SPPVLYEITITFTYSDGTTVTKTINATVPRSQIDALIQKIIEEPGNKPYTKVTFNIYDKSTGTWTTITIDSA [r9_97_JUSTAS]” here?
The value was 5.76 ± 0.18 kcal/mol.
